Where a SMILES comes first, the peptide text is derived from it.
How the values were obtained:
[1] = system: HT1080 fibrosarcoma cells; assay: HT1080 cell invasion through Matrigel matrices; format: cell-based, human; details: treatment of HT1080 cells with inhibitor
Protocol: (§1) The effect CystC and D14CystC on the invasion of HT1080 and 3T3-L1 cells was determined as described previously (42). Briefly, upper chambers were coated with 100 μl of diluted Matrigel (1:50 in serum-free media), which was allowed to evaporate to dryness overnight at room temperature. The following morning the Matrigel mixtures were rehydrated and subsequently cultured with control-, CystC-, or D14CystC-expressing HT1080 or 3T3-L1 cells at a density of 100,000 cells/chamber. Cellular invasion was stimulated by addition of 2% serum to the lower chambers. Forty-eight hr later, the cells were washed twice in ice-cold PBS and immediately fixed for 15 min with 95% ethanol. Cells remaining in the upper chambers were removed with a cotton swab, whereas those remaining in the lower chamber were stained with crystal violet. Quantifying invading cells was determined through two independent measures, which yielded identical results: (i) manual counting under a light microscope, and (ii) crystal violet dye extraction by incubation of the membranes in 10% acetic acid, followed by spectrophotometry at 590 nm.
Cathepsin B is a lysosomal cysteine proteinase that functions in intracellular protein catabolism, as well as in bone resorption, hormone activation, and antigen processing (5). During tumorigenesis, cancer cells express a cathepsin B splice variant whose protein product is secreted into the extracellular milieu (5) and localized to the leading edge of invasive tumors (19), thereby promoting cancer cell invasion and metastasis. However, recent evidence has questioned the role of intracellular versus extracellular cathepsin B in promoting cancer cell invasion (20). To distinguish between these two possibilities, human HT1080 fibrosarcoma cells that stably express the murine ecotropic receptor (21) were infected with control (i.e., GFP), CystC, or Δ14CystC retrovirus. Afterward, cells that expressed GFP were isolated by flow cytometry to establish stable polyclonal populations of control-, CystC-, and Δ14CystC-expressing HT1080 cells (data not shown). The inventor chose to study HT1080 cells because they are highly invasive, and because they express large quantities of secreted cathepsin B and comparably little CystC (22). Thus, if extracellular cathepsin B mediates HT1080 cell invasion, it was hypothesized that overexpression of secreted CystC would attenuate their invasion through synthetic basement membranes.
Briefly, GFP-, CystC-, or Δ14CystC-expressing HT0180 cells were allowed to invade through Matrigel-coated membranes for 48 hr. Data shown in FIG. 1A are the mean (±SE) of three (Δ14CystC) and nine (GFP and CystC) independent experiments presented as the percent invasion relative to GFP-expressing HT1080 cells (***, p<0.05; Student's T-Test).

[2] = system: TGF-β receptors (TβR-I, TβR-II, TβR-III); assay: Iodinated TGF-β1 radioligand binding and cross-linking assay on Mv1Lu cells; design: species or system mink; details: [125I]TGF-β1 200 pM, recombinant protein 0-10 μg/ml, 3 hr at 4° C.
Protocol: Mink lung Mv1Lu epithelial cells were plated onto 6-well plates and grown until 90% confluency. The radioligand binding and cross-linking of iodinated TGF-β1 (200 pM) to Mv1Lu cells in the absence or presence of increasing concentration of recombinant GST-Jun(1-79) or -CystC was performed as described previously (44). Afterward, cytokine:receptor complexes contained in detergent-solubilized whole cell extracts were isolated by immunoprecipitation with anti-TβR-II antibodies as described previously (44). TGF-β1 bound to cell surface TβR-I, TβR-II, and TβR-III was visualized by exposure of the dried gels to a phosphor screen, which were developed 1-3 d later on a Molecular Dynamic Typhoon Scanner. Total bound TGF-β1 was defined as the sum of signal intensities for TGF-β1 cross-linked to TβR-I, TβR-II, and TβR-III in each condition.
Mink lung Mv1Lu epithelial cells were incubated for 3 hr at 4° C. with [125I]TGF-β1 (200 pM) in the absence or presence of increasing concentrations (0-10 μg/ml; 0, 0.5, 1, 5, 10) of recombinant Jun(1-79) or CystC. Cytokine:receptor complexes were cross-linked by addition of disuccinimidyl suberate, and subsequently isolated from detergent-solubilized whole cell extracts by immunoprecipitation with anti-TβR-II antibodies. […]

[3] = system: TGF-β signaling; assay: p3TP-luciferase reporter gene assay in 3T3-L1 cells; format: cell-based, murine; details: recombinant protein 10 mg/ml; TGF-β1 5 ng/ml; 3T3-L1 cells; p<0.05
Protocol: Analysis of luciferase activity driven by the synthetic p3TP reporter ((26); generously provided by Dr. Joan Massague, Sloan Kettering) was performed as described previously (42). Briefly, control, CystC-, or Δ14CystC-expressing 3T3-L1 or HT1080 cells were cultured onto 24-well plates at a density of 45,000 cells/well and allowed to adhere overnight. The cells were transiently transfected the following morning by overnight exposure to LT1 liposomes (Mirus) containing 300 ng/well p3TP-luciferase and 100 ng/well of pCMV-β-gal. Afterward, the cells were washed twice with PBS and stimulated overnight in serum-free media with increasing concentrations of TGF-β1 as indicated. The following morning, luciferase and β-gal activities contained in detergent-solubilized cell extracts were determined.
In some experiments, the effects of recombinant CystC and D14CystC on p3TP-luciferase activity 3T3-L1 cells was determined. […] All subsequent procedures were performed as described above.
The present inventor's findings that TGF-β signaling was inhibited by CystC (FIGS. 1 and 2) independent of its actions on cathepsin B lead them to hypothesize CystC as a general antagonist of TGF-β signaling. To test this hypothesis, changes in p3TP-driven luciferase activity were monitored in control, CystC-, Δ14CystC-expressing cells before and after their stimulation with TGF-β. Briefly, GFP-, CystC-, or Δ14CystC-expressing 3T3-L1 cells were transiently transfected with p3TP-luciferase and pCMV-β-gal, and subsequently stimulated with increasing concentrations of TGF-β1 (0-5 ng/ml) as indicated in FIG. 3A. Afterward, luciferase and β-gal activities contained in detergent-solubilized cell extracts were measured. […] Data are the mean (±SE) luciferase activities of four independent experiments normalized to untreated GFP-expressing cells.
The transfectants were then stimulated with TGF-β1 (5 ng/ml) in the absence or presence of recombinant (10 mg/ml) GST, GST-CystC, or GST-D14CystC as indicated in FIG. 3B. […]

[4] = system: NMuMG mammary epithelial cells; assay: TGF-β-mediated downregulation of E-cadherin in NMuMG cells; format: cell-based, murine; details: recombinant protein treatment 10 μg/ml; TGF-β1 5 ng/ml, 36 hours; NMuMG cells
Protocol: (§2) The ability of TGF-β to alter actin cytoskeletal architecture and E-cadherin expression was monitored essentially as described (Piek et al., 1999). Briefly, control-, CystC-, or Δ14CystC-expressing NMuMG cells were allowed to adhere overnight to glass coverslips in 24-well plates (50,000 cells/well). The cells were stimulated the following day with TGF-β1 (5 ng/ml) for 0-36 hours at 37° C. In some experiments, control NMuMG cells were stimulated with TGF-β1 in the absence or presence of 10 μg/ml of recombinant GST, GST-CystC, or GST-Δ14CystC. Upon completion of agonist stimulation, the cells were washed in ice-cold PBS and immediately fixed in 3.7% formaldehyde. After extensive washing in PBS, the cells were blocked in PBS supplemented with 1.5% FBS, followed by incubation with rhodamine-phalloidin (0.25 μM). […]
The ability of TGF-β to alter E-cadherin expression also was monitored by immunoprecipitating E-cadherin from Buffer H/1% Triton X-100-solubilized (Schiemann et al., 2003) NMuMG whole cell extracts, followed by immunoblotting with anti-E-cadherin antibodies (1:1000 dilution).
(§3) To test this hypothesis, the inventor first examined whether CystC and a CystC mutant impaired in its ability to inhibit cathepsin protease activity (i.e., Δ14CystC) could antagonize TGF-β stimulation of EMT in MECs. […] TGF-β stimulation of EMT is studied routinely in murine NMuMG MECs, which readily undergo EMT when treated with TGF-β (Piek et al., 1999; Miettinen et al., 1994; Gotzmann et al., 2004). […] E-cadherin expression was monitored by indirect immunofluorescence with anti-E-cadherin antibodies.
In another experiment, NMuMG cells were infected with ecotropic retrovirus encoding either GFP (i.e., control), CystC, or Δ14CystC, and subsequently were isolated by FACS-sorting for GFP expression to yield stable polyclonal populations of control, CystC, and Δ14CystC-expressing cells. The expression and secretion of recombinant CystC proteins by infected NMuMG and NRK cells was monitored by immunoblotting conditioned-media with anti-CystC antibodies. […]

[5] = system: 3T3-L1 fibroblasts; assay: 3T3-L1 cell invasion through Matrigel matrices; format: cell-based, murine; details: recombinant protein 10 mg/ml; TGF-β1 5 ng/ml; 48 hr
Protocol: as §1
In some experiments, the effects of recombinant CystC and D14CystC on 3T3-L1 cell invasion was examined. To do so, 3T3-L1 cells (100,000 cells/chamber) were allowed to invade through Matrigel […], together with or without 5 ng/ml of TGF-β1. All subsequent procedures were performed as described above.
GFP-, CystC-, or Δ14CystC-expressing 3T3-L1 cells were allowed to invade through Matrigel-coated filters in the absence or presence of TGF-β1 (5 ng/ml) for 48 hr, and the results are shown in FIG. 2A. […] Data are the mean (±SE) of four independent experiments presented as the percent invasion relative to GFP-expressing 3T3-L1 cells.
Moreover, the inhibitory effects of CystC on 3T3-L1 cell invasion could be recapitulated by addition of recombinant CystC fusion proteins. Control or TGF-β1-stimulated (5 ng/ml) 3T3-L1 cells were allowed to invade through Matrigel-coated filters for 48 hr in the absence or presence of recombinant (10 mg/ml) GST, GST-CystC, or GST-D14CystC as indicated in FIG. 2B. […] Data are the mean (±SE) of three independent experiments presented as the percent invasion relative to untreated 3T3-L1 cells. […] Collectively, these findings indicate that 3T3-L1 cell invasion proceeds through cathepsin B-dependent and TGF-β-dependent pathways.

[6] = system: NMuMG mammary epithelial cells; assay: TGF-β-stimulated actin cytoskeletal reorganization (EMT) in NMuMG cells, rhodamine-phalloidin immunofluorescence; format: cell-based, murine; details: recombinant protein treatment 10 μg/ml; TGF-β1 5 ng/ml; NMuMG cells
Protocol: as §2, §3
In another experiment, NMuMG cells were infected with ecotropic retrovirus encoding either GFP (i.e., control), CystC, or Δ14CystC, and subsequently were isolated by FACS-sorting for GFP expression to yield stable polyclonal populations of control, CystC, and Δ14CystC-expressing cells. The expression and secretion of recombinant CystC proteins by infected NMuMG and NRK cells was monitored by immunoblotting conditioned-media with anti-CystC antibodies. […] Next, the control, CystC-, and Δ14CystC-expressing NMuMG cells were incubated in the absence or presence of TGF-β1 (5 ng/ml) for 36 hours, whereupon E-cadherin expression was monitored by immunoblotting with anti-E-Cadherin antibodies. […]

Molecule: CCCNC(=O)[C@H]1O[C@@H]1C(=O)N[C@H](C(=O)N1CCC[C@H]1C(=O)OC)[C@@H](C)CC [CA-074ME, reference compound]
- HT1080 cell invasiveness ([1]; n=3): 101.0±5.6 % of control

Molecule: CC(=O)N[C@@H](CC(C)C)C(=O)N[C@H](C(=O)N[C@H](C=O)CCCCN)C(C)C [cathepsin B inhibitor II, reference compound] (Ac-Leu-Val-Lys-aldehyde)
- reduction of HT1080 cell invasion through Matrigel matrices ([1]; n=3, p<0.05): 47.1±8.5%

B1: recombinant Jun(1-79): recombinant GST-Jun(1-79) fusion protein, control in the TGF-β1 binding assay (protein)
chain: MTAKMETTFYDDALNASFLPSESGPYGYSNPKILKQSMTLNLADPVGSLKPHLRAKNSDLLTSPDVGLLKLASPELERL
modifications: left off: a dimerising Fc or GST
- binding of iodinated TGF-β1 to its cell surface receptors [2]: no effect

B2: recombinant Δ14CystC: GST-CystC fusion protein with residues 80-93 deleted by site-directed mutagenesis, purified from E. coli (protein)
chain: MAGPLRAPLLLLAILAVALAVSPAAGSSPGKPPRLVGGPMDASVEEEGVRRALDFAVGEYNKASNDMYHSRALQVVRARLGRTTCTKTQPNLDNCPFHDQPHLKRKAFCSFQIYAVPWQGTMTLSKSTCQDA
modifications: left off: small tags and cut ends
notes: GST-CystC fusion protein with residues 80-93 deleted by site-directed mutagenesis, purified from E. coli
- luciferase activity stimulated by TGF-β (p3TP) [3]: significantly inhibited
- TGF-β-mediated downregulation of E-cadherin [4]: antagonized
- 3T3-L1 cell invasion stimulated by serum:TGF-β [5]: selectively blocked
- actin cytoskeletal reorganization stimulated by TGF-β [6]: prevented
